Columns and labels:
[1] = biological target: NF-κB p65 subunit (RelA) (human, UniProt Q04206 1-551); test: complex composition inferred from EMSA supershift
[2] = system: c-myc mRNA; test: In vitro mRNA degradation assay with in vitro translated proteins; assay type: biochemical, human; settings: in vitro translated protein incubated with HO-1 total RNA for 0.5 and 2 h
Description: In vitro Translation and in vitro mRNA Degradation Assays: In vitro translation was performed using the TNT coupled Reticulocyte Lysate Systems (Promega) using the plasmids pcDNA3.1+(Hygro) as a control, GADD153 expression plasmid, phPNPase^old-35, pΔRPH1, pΔRPH2, pΔRPH1+2 and pΔC-term according to the manufacturer's protocol. Five […] of total RNA from HO-1 cells were incubated with 5 μl of each in vitro translated protein at 37° C. from 0.5 to 2 h. The RNA was repurified using the Qiagen RNeasy mini kit (Qiagen) and Northern blotting was performed.

[3] = biological target: the molecule itself; test: self-association inferred from anti-HA Western blot of fractionated HO-1 cells

Chain of NF-κB p65 subunit (RelA) (Q04206 whole entry): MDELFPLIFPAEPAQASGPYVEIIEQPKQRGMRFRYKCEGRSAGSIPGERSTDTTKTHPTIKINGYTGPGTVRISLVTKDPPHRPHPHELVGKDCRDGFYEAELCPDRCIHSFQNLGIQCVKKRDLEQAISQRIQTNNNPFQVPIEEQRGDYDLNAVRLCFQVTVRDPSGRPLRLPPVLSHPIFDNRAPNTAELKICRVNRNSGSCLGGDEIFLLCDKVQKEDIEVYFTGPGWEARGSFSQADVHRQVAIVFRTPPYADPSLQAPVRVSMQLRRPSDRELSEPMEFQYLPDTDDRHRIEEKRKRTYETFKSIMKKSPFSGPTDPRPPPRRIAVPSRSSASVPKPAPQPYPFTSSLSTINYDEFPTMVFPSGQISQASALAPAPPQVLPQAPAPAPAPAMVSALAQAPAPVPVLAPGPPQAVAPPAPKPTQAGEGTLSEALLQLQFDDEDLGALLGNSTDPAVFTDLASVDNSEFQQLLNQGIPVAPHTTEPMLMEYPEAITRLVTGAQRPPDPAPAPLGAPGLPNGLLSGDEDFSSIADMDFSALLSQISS

Molecule	binding result [1]	degradation of c-myc mRNA [2]	binding result [3]
NF-κB p50 subunit (other, human, UniProt P19838 1-433, looked up, also called NF-κB1 (p50/p105)) MAEDDPYLGRPEQMFHLDPSLTHTIFNPEVFQPQMALPTDGPYLQILEQPKQRGFRFRYVCEGPSHGGLPGASSEKNKKSYPQVKICNYVGPAKVIVQLVTNGKNIHLHAHSLVGKHCEDGICTVTAGPKDMVVGFANLGILHVTKKKVFETLEARMTEACIRGYNPGLLVHPDLAYLQAEGGGDRQLGDREKELIRQAALQQTKEMDLSVVRLMFTAFLPDSTGSFTRRLEPVVSDAIYDSKAPNASNLKIVRMDRTAGCVTGGEEIYLLCDKVQKDDIQIRFYEEEENGGVWEGFGDFSPTDVHRQFAIVFKTPKYKDINITKPASVFVQLRRKSDLETSEPKPFLYYPEIKDKEEVQRKRQKLMPNFSDSFGGGSGAGAGGGGMFGSGGGGGGTGSTGPGYSFPHYGFPTYGGITFHPGTTKSNAGMKHG	binds	–	–
ΔRPH1 deletion mutant of hPNPase^OLD-35 (a.a. 183-783) with C-terminal HA tag (enzyme, also called Ad.ΔRPH1; pΔRPH1) PWNGPVGAVRIGIIDGEYVVNPTRKEMSSSTLNLVVAGAPKSQIVMLEASAENILQQDFCHAIKVGVKYTQQIIQGIQQLVKETGVTKRTPQKLFTPSPEIVKYTHKLAMERLYAVFTDYEHDKVSRDEAVNKIRLDTEEQLKEKFPEADPYEIIESFNVVAKEVFRSIVLNEYKRCDGRDLTSLRNVSCEVDMFKTLHGSALFQRGQTQVLCTVTFDSLESGIKSDQVITAINGIKDKNFMLHYEFPPYATNEIGKVTGLNRRELGHGALAEKALYPVIPRDFPFTIRVTSEVLESNGSSSMASACGGSLALMDSGVPISSAVAGVAIGLVTKTDPEKGEIEDYRLLTDILGIEDYNGDMDFKIAGTNKGITALQADIKLPGIPIKIVMEAIQQASVAKKEILQIMNKTISKPRASRKENGPVVETVQVPLSKRAKFVGPGGYNLKKLQAETGVTISQVDEETFSVFAPTPSVMHEARDFITEICKDDQEQQLEFGAVYTATITEIRDTGVMVKLYPNMTAVLLHNTQLDQRKIKHPTALGLEVGQEIQVKYFGRDPADGRMRLSRKVLQSPATTVVRTLNDRSSIVMGEPISQSSSNSQYPYDVPDYA	–	significant degradation	no binding
ΔRPH2 deletion mutant of hPNPase^OLD-35 (a.a. 1-202 and 496-783) with C-terminal HA tag (enzyme, The two fragments were joined at an HpaI site; also called Ad.ΔRPH2; pΔRPH2) MAACRYCCSCLRLRPLSDGPFLLPRRDRALTQLQVRALWSSAGSRAVAVDLGNRKLEISSGKLARFADGSAVVQSGDTAVMVTAVSKTKPSPSQFMPLVVDYRQKAAAAGRIPTNYLRREVGTSDKEILTSRIIDRSIRPLFPAGYFYDTQVLCNLLAVDGVNEPDVLAINGASVALSLSDIPWNGPVGAVRIGIIDGEYVVMDSGVPISSAVAGVAIGLVTKTDPEKGEIEDYRLLTDILGIEDYNGDMDFKIAGTNKGITALQADIKLPGIPIKIVMEAIQQASVAKKEILQIMNKTISKPRASRKENGPVVETVQVPLSKRAKFVGPGGYNLKKLQAETGVTISQVDEETFSVFAPTPSVMHEARDFITEICKDDQEQQLEFGAVYTATITEIRDTGVMVKLYPNMTAVLLHNTQLDQRKIKHPTALGLEVGQEIQVKYFGRDPADGRMRLSRKVLQSPATTVVRTLNDRSSIVMGEPISQSSSNSQYPYDVPDYA	–	significant degradation	no binding
ΔC-term deletion mutant of hPNPase^OLD-35 (a.a. 1-507) with C-terminal HA tag (enzyme, also called Ad.ΔC-term; pΔC-term) MAACRYCCSCLRLRPLSDGPFLLPRRDRALTQLQVRALWSSAGSRAVAVDLGNRKLEISSGKLARFADGSAVVQSGDTAVMVTAVSKTKPSPSQFMPLVVDYRQKAAAAGRIPTNYLRREVGTSDKEILTSRIIDRSIRPLFPAGYFYDTQVLCNLLAVDGVNEPDVLAINGASVALSLSDIPWNGPVGAVRIGIIDGEYVVNPTRKEMSSSTLNLVVAGAPKSQIVMLEASAENILQQDFCHAIKVGVKYTQQIIQGIQQLVKETGVTKRTPQKLFTPSPEIVKYTHKLAMERLYAVFTDYEHDKVSRDEAVNKIRLDTEEQLKEKFPEADPYEIIESFNVVAKEVFRSIVLNEYKRCDGRDLTSLRNVSCEVDMFKTLHGSALFQRGQTQVLCTVTFDSLESGIKSDQVITAINGIKDKNFMLHYEFPPYATNEIGKVTGLNRRELGHGALAEKALYPVIPRDFPFTIRVTSEVLESNGSSSMASACGGSLALMDSGVPISSAVAYPYDVPDYA	–	significant degradation	no binding
phPNPase^old-35: plasmid expressing full-length HA-tagged hPNPase^OLD-35 protein, in vitro translated for RNA degradation assays (protein, UniProt Q8TCS8 1-783, looked up, full-length HA tag, plasmid expressing full-length HA-tagged hPNPase^OLD-35 protein, in vitro translated for RNA degradation assays) MAACRYCCSCLRLRPLSDGPFLLPRRDRALTQLQVRALWSSAGSRAVAVDLGNRKLEISSGKLARFADGSAVVQSGDTAVMVTAVSKTKPSPSQFMPLVVDYRQKAAAAGRIPTNYLRREIGTSDKEILTSRIIDRSIRPLFPAGYFYDTQVLCNLLAVDGVNEPDVLAINGASVALSLSDIPWNGPVGAVRIGIIDGEYVVNPTRKEMSSSTLNLVVAGAPKSQIVMLEASAENILQQDFCHAIKVGVKYTQQIIQGIQQLVKETGVTKRTPQKLFTPSPEIVKYTHKLAMERLYAVFTDYEHDKVSRDEAVNKIRLDTEEQLKEKFPEADPYEIIESFNVVAKEVFRSIVLNEYKRCDGRDLTSLRNVSCEVDMFKTLHGSALFQRGQTQVLCTVTFDSLESGIKSDQVITAINGIKDKNFMLHYEFPPYATNEIGKVTGLNRRELGHGALAEKALYPVIPRDFPFTIRVTSEVLESNGSSSMASACGGSLALMDSGVPISSAVAGVAIGLVTKTDPEKGEIEDYRLLTDILGIEDYNGDMDFKIAGTNKGITALQADIKLPGIPIKIVMEAIQQASVAKKEILQIMNKTISKPRASRKENGPVVETVQVPLSKRAKFVGPGGYNLKKLQAETGVTISQVDEETFSVFAPTPSAMHEARDFITEICKDDQEQQLEFGAVYTATITEIRDTGVMVKLYPNMTAVLLHNTQLDQRKIKHPTALGLEVGQEIQVKYFGRDPADGRMRLSRKVLQSPATTVVRTLNDRSSIVMGEPISQSSSNSQ	–	significant degradation	–
pΔRPH1+2: plasmid for ΔRPH1+2 deletion mutant, in vitro translated protein of 31 kDa (protein) MDSGVPISSAVAGVAIGLVTKTDPEKGEIEDYRLLTDILGIEDYNGDMDFKIAGTNKGITALQADIKLPGIPIKIVMEAIQQASVAKKEILQIMNKTISKPRASRKENGPVVETVQVPLSKRAKFVGPGGYNLKKLQAETGVTISQVDEETFSVFAPTPSVMHEARDFITEICKDDQEQQLEFGAVYTATITEIRDTGVMVKLYPNMTAVLLHNTQLDQRKIKHPTALGLEVGQEIQVKYFGRDPADGRMRLSRKVLQSPATTVVRTLNDRSSIVMGEPISQSSSNSQYPYDVPDYA	–	No degradation	–
pGADD153: unrelated plasmid that expresses a transcription factor (protein, UniProt P35638 1-169, looked up, expressed from plasmid, unrelated plasmid that expresses a transcription factor) DNA damage-inducible …: MAAESLPFSFGTLSSWELEAWYEDLQEVLSSDENGGTYVSPPGNEEEESKIFTTLDPASLAWLTEEEPEPAEVTSTSQSPHSPDSSQSSLAQEEEEEDQGRTRKRKQSGHSPARAGKQRMKEKEQENERKVAQLAEENERLKQEIERLTREVEATRRALIDRMVNLHQA	–	No degradation	–

Reference: US20080057055A1, “OLD-35 as an inflammatory agent” (priority 2004, published 2008)
